# Experimental data from US20180305695.
# Molecular target: von Willebrand factor A1 domain (Homo sapiens) (UniProt P04275)
# Assay: SPR
# Conditions: 37 C
sequence,measurement,setting,value
CGAGGCTCCCCANCTTTCGCCNACANCCGAGGGAGCCTCG [vWF1-DsDsDs-GC],Kd,"n = Ds at 3 positions, phosphate buffer 155 mM NaCl, 0.05% NP-40",1080 pM
CGAGGCTCCCCANCTTTCGCCNACANCCGAGGGAGCCTCGCGCGTAGCG [vWF1-DsDsDs-mhGC],Kd,"n = Ds at 3 positions, phosphate buffer 155 mM NaCl, 0.05% NP-40, koff 0.00159 1/s, printed as GCmh",780 pM
CGCGGCCGANGAGCACCGAAGGTCTCAACGNTGGAGGCCGCGCGCGTAGCG [vWF2-DsDsDs-2mhGC],Kd,"n = Ds, likely pM (protein 0.078-5 nM)",6.13e+07 pM
CGTGACCGANGAGCACCTAACNGGTCTCAACGNTGGAGGTCACG [vWF2-DsDsDs],Kd,"n = Ds at 3 positions, likely pM (protein 0.078-5 nM)",7.49e+07 pM
TGAGACTCCCCANCTTTCGCCNACANCCGAGGGAGTCTCA [vWF1-DsDsDs],Kd,"n = Ds (7-(2-thienyl)-3H-imidazo[4,5-b]pyridin-3-yl) at 3 positions, phosphate buffer 155 mM NaCl, 0.05% NP-40",1030 pM
